In assay [1] the target is T1, human TIM-3 extracellular domain protein with hFc tag (hTIM-3-hFc) (human, UniProt Q8TDQ0 22-200).
T1 construct: not shown: human IgG Fc fragment (hFc) of the pCpC vector
T1 sequence: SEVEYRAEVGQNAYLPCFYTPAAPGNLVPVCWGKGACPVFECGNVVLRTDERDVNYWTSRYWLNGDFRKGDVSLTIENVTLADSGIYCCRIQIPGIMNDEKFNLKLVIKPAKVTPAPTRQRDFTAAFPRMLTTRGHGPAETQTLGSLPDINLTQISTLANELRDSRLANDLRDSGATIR
The assay is described as follows: ELISA, coated human TIM-3 ECD protein, 0.0007 nM antibody.

The target of assay [2] is T2, murine TIM-3 extracellular domain protein with hFc tag (mTIM-3-hFc) (mouse, UniProt Q8VIM0 29-191).
T2 construct: also called mouse TIM-3 extracellular domain protein; not shown: human IgG Fc fragment (hFc) of the pCpC vector
T2 chain: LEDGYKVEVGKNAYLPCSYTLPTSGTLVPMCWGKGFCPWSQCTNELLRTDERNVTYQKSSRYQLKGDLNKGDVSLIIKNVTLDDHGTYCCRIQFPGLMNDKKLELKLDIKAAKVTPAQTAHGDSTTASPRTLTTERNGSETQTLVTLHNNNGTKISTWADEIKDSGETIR
The assay is described as follows: ELISA, coated mouse TIM-3 ECD protein, 0.0001 nM antibody.

In assay [3] the target is T1, human TIM-3 extracellular domain …. The assay is described as follows: ELISA, coated human TIM-3 ECD protein, 0.0667 nM antibody.
For assay [4], the target named is T3, monkey TIM-3 on CHOK1 stable cell line (CHOK1-cTIM-3) (monkey).
T3 chain: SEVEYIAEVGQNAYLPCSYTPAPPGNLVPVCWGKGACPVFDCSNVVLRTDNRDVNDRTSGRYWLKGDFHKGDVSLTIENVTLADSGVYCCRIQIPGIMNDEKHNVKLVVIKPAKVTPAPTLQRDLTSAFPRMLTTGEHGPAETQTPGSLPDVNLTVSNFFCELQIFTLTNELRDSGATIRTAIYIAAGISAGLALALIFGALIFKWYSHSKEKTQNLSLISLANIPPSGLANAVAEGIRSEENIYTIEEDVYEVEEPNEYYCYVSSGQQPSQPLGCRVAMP
The assay is described as follows: FACS, CHOK1-cTIM-3 cells, 0.013 nM antibody.

Assay [5] has as its target T4, human TIM-3 protein with hFc tag (hTIM-3-hFc protein) (human, UniProt Q8TDQ0 22-200).
T4 construct: also called immunogen 1; human TIM-3 extracellular domain protein; not shown: human IgG Fc fragment (hFc) of the pCpC vector
T4 sequence: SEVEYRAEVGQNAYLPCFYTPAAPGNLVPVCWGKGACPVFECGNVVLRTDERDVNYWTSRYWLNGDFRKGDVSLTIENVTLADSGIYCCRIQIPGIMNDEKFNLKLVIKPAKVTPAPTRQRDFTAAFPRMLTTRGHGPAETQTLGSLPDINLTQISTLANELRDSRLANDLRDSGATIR
Put plainly: ELISA, coated hTIM-3-hFc; antibody 0.0667 nM. The source says:
(§1) The amino acid sequence 22-200 of the extracellular domain of the human TIM-3 protein described in the step of Example 1 (as shown in SEQ ID NO. 71 in the sequence listing) was cloned into a pCpC vector having a human IgG Fc fragment (hFc), and transfected into HEK293 cells. The cell culture medium was collected, and purified to obtain the human TIM-3 protein with hFc tag (herein referred to as hTIM-3-hFc protein). The amino acid sequence 22-201 of the extracellular domain of the monkey TIM-3 protein (as shown in SEQ ID NO. 72 in the sequence listing) was cloned into a pCpC vector having a human IgG Fc fragment (hFc), and transfected into HEK293 cells. The cell culture medium was collected, and purified to obtain the monkey TIM-3 protein with hFc tag (herein referred to as cTIM-3-hFc protein). […] The cell culture medium was collected, and purified to obtain the murine TIM-3 protein with hFc tag (herein referred to as mTIM-3-hFc protein). Purified human, monkey, and mouse TIM-3 extracellular domain proteins (hTIM-3-hFc, cTIM-3-hFc, and mTIM-3-hFc) were diluted with PBS to a final concentration of 1.0 μg/ml and then added to a 96-well ELISA plate with 100 μl per well. The plate was sealed with plastic film and incubated overnight at 4° C. The plate was washed 4 times with the plate washing solution (PBS+0.01% Tween20) on the next day, and added with the blocking solution (PBS+0.01% Tween20+1% BSA) and sealed at room temperature for 1-2 hours. The blocking solution was poured out. 50-100 μl of the antibody sample to be tested was added to each well. The plate was incubated at 37° C. for 1-2 hours, and washed 2-3 times with plate washing solution (PBS+0. 01% Tween20). HRP (horseradish peroxidase) labeled secondary antibody was added. The plate was incubated at 37° C. for 1-2 hours, and washed 2-3 times with plate washing solution (PBS+0. 01% Tween20). […] of TMB substrate was added to each well. After incubated at room temperature for 15-30 minutes, the plate was added with […] stop solution (1.0N HCl) to each well. An ELISA plate reader (TiterMax 384plus, Molecular Device) was used to read the A450 nm value.

Assay [6] concerns the target T5, murine TIM-3 protein with hFc tag (mTIM-3-hFc protein) (mouse; human, UniProt Q8VIM0 29-191).
T5 construct: Made in HEK293 cells; also called mouse TIM-3 extracellular domain protein; not shown: human IgG Fc fragment (hFc) of the pCpC vector
T5 chain: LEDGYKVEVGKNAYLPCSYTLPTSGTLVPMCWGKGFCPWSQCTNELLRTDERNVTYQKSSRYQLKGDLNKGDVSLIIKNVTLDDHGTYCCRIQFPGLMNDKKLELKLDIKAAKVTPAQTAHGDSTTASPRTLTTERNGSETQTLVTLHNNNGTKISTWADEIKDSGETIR
Put plainly: ELISA, coated mTIM-3-hFc; antibody 0.0667 nM.
Source text: as §1

Assay [7] concerns the target T6, monkey TIM-3 protein with hFc tag (cTIM-3-hFc protein) (monkey; human).
T6 construct: Made in HEK293 cells; also called monkey TIM-3 extracellular domain protein; not shown: human IgG Fc fragment (hFc) of the pCpC vector
T6 chain: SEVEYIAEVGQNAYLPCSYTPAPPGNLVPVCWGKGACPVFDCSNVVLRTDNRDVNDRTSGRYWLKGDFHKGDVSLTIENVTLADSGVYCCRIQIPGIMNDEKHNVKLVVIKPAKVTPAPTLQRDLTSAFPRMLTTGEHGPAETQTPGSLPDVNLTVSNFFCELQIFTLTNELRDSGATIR
The assay is described as follows: ELISA, coated cTIM-3-hFc; antibody 0.0001 nM.
Source text: as §1

For assay [8], the target named is T4, human TIM-3 protein with hFc tag …. Put plainly: ELISA, coated hTIM-3-hFc; antibody 66.667 nM.
Source text: as §1

Assay [9] shares this target. Put plainly: ELISA, coated hTIM-3-hFc; antibody 0 nM (blank).
Source text: as §1

B1: 215A8F2 fully human TIM-3 antibody (human IgG4, kappa) (antibody, V domains shown)
VH: QVQLQQWGAGLLKPSETLSLTCTVYGGSFSGYYWNWIRQPPGKGLEWLGEINHSGSTNYNPSLKRRVTISVDTSKNQFSLKLSSVTAADTAVYYCARVYYYGPFDFWGQGTLVTVSS
VL: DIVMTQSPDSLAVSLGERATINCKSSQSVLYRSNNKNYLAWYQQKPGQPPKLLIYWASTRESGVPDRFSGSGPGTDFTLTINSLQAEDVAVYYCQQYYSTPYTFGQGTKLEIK
Regarding B1, the OD450 was 0.1 in assay [1], 0.21 in assay [2] and 1.29 in assay [3]. The molecule also registered a Mean fluorescence intensity in [4] of 11.5.

B2: 215A8F2 (TIM-3 antibody purified from hybridoma, chimeric antibody of Example 2) (antibody, V domains shown)
VH: QVQLQQWGAGLLKPSETLSLTCTVYGGSFSGYYWNWIRQPPGKGLEWLGEINHSGSTNYNPSLKRRVTISVDTSKNQFSLKLSSVTAADTAVYYCARVYYYGPFDFWGQGTLVTVSS
VL: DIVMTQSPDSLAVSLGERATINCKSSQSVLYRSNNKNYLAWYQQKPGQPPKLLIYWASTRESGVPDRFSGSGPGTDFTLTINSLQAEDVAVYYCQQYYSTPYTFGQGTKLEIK
notes: From hybridoma of Harbour H2L2 transgenic mice: human variable regions, rat constant regions
Regarding B2, the OD450 in [5] turned out to be 1; in assay [6], 0.67; in [7] it was 0.52; in [8], 3.17; in [9], 0.11.

B3: 34B6D8 (TIM-3 antibody purified from hybridoma, chimeric antibody of Example 2) (antibody, V domains shown)
VH: EVQLVESGGGLVQPGGSLRLSCAASGFTFSTYWMTWVRQAPGKRLEWVANIKQGGGDKYYVDSVKGRFTISTDNAKNSLYLQMNSLRAEDTAVYYCARGSNWFDPWGQGTLVTVSS
VL: EIVMTQSPATLSMSPGERATLSCRASQSVYDNLAWYQQKPGQAPRLLIYGASTRATGIPARFSGSGSGTEFTLTISSLQSEDFALYYCQQYTHWPITFGQGTRLEIK
notes: as for B2
On to B3, for which the OD450 in assay [5] is 1.62; in [6], 0.68; in assay [7], 0.57; in [8], 3.42; in assay [9], 0.12.

B4: 57F4E5 fully human TIM-3 antibody (human IgG4, kappa) (antibody, V domains shown)
VH: EVQLVESGGGLVQPGGSLRLSCAASGFTFSSYWMSWVRQAPGKGLEWVANIKQDGSEKYYVDSVKGRFTISRDSAKNSLYLQMNSLRAEDTAMYFCARDSNFFDYWGQGTLVTVSS
VL: ETVMTQSPATLSVSPGERATLSCRASQSVSSNLAWYQRKPGQAPRLLIYFSSTRATGIPARFSGSGSGTEFTLTISSLQSEDFAVYYCQQYNNWPLTFGGGTKVEIK
Consider B4, for which the results for the OD450 in [1], in assay [2] and in [3] were 0.11, 0.24 and 1.22, respectively. For the same molecule, in assay [4], the Mean fluorescence intensity was determined as 11.4.

B5: 39E5H1 (TIM-3 antibody purified from hybridoma, chimeric antibody of Example 2) (antibody, V domains shown)
VH: EVQLVESGGGLVQPGGSLRLSCAASGFTFSSYWMSWVRQAPGKGLEWVANIKRGGSERYYVDSVKGRFTISGDNAKNSVYLQMNSLRAEDTAVYYCARGSNWFDPWGQGTLVTVSS
VL: ETVMTQSPAILSVSPGERATLSCRASQSVYSNLAWYQQKLGQAPRLLIYDASTRATGIPARFSGSGSGTEFTLTISSLQSEDFAVYYCQQYNNWPITFGQGTRLEIK
notes: as for B2
For B5, the OD450 was found to be 1.78 in assay [5]; 0.68 in assay [6]; 0.57 in [7]; 3.39 in assay [8]; 0.12 in assay [9].

B6: 134H3G6 (TIM-3 antibody purified from hybridoma, chimeric antibody of Example 2) (antibody, V domains shown)
VH: EVQLVESGGGLVQPGGSLRLSCAASGFTFSNSWMTWVRQAPGKGLEWVANIKQAGTEKYYVDSVKGRFTISRDNAKNSLYLQMNSLRAEDTAVYYCNSGSNYFDYWGQGTLVTVSS
VL: EIVMTQSPATLSVSPGERATLSCRARQNFYSNLAWYQQKPGQAPRLLIYGASTRATGIPARFSGSGSGTEFTLTISSLQSEDFAVYYCQQYNNWPLTFGGGTKVEIK
notes: as for B2
With B6, the OD450 was determined as 0.2 in assay [5]; 0.65 in [6]; 0.54 in assay [7]; 3.15 in assay [8]; 0.12 in assay [9].

B7: 57F4E5 (TIM-3 antibody purified from hybridoma, chimeric antibody of Example 2) (antibody, V domains shown)
VH: EVQLVESGGGLVQPGGSLRLSCAASGFTFSSYWMSWVRQAPGKGLEWVANIKQDGSEKYYVDSVKGRFTISRDSAKNSLYLQMNSLRAEDTAMYFCARDSNFFDYWGQGTLVTVSS
VL: ETVMTQSPATLSVSPGERATLSCRASQSVSSNLAWYQRKPGQAPRLLIYFSSTRATGIPARFSGSGSGTEFTLTISSLQSEDFAVYYCQQYNNWPLTFGGGTKVEIK
notes: as for B2
For the molecule B7, the OD450 in assay [5] was determined as 2.83; in assay [6], 0.64; in [7] it was 0.58; in assay [8] it was 3.26; in [9] it was 0.12.

B8: 18D2H2 (TIM-3 antibody purified from hybridoma, chimeric antibody of Example 2) (antibody, V domains shown)
VH: EVQLVESGGDLVQPGGSLRLSCAASGFTFSTYWMTWVRQAPGRGLEWVANIKQDGSAKYYVDSVKGRFTLSRDDAKNSLYLQMNSLRAEDTAVYYCARGSNWFDYWGQGTLVTVSS
VL: ETVMTQSPATLSVSPGERATLSCRANQNVYSNLAWYQQKPGQAPRLLIYDASTRATGFPARFSGSGSGTEFTLTISSLQSEDFAVYYCQQYNNWPLTFGGGTKVEIK
notes: as for B2
With B8, the OD450 in assay [5] stood at 0.35; in assay [6], 0.67; in assay [7], 0.53; in [8], 2.93; in assay [9], 0.11.

B9: 134H3G6 fully human TIM-3 antibody (human IgG4, kappa) (antibody, V domains shown)
VH: EVQLVESGGGLVQPGGSLRLSCAASGFTFSNSWMTWVRQAPGKGLEWVANIKQAGTEKYYVDSVKGRFTISRDNAKNSLYLQMNSLRAEDTAVYYCNSGSNYFDYWGQGTLVTVSS
VL: EIVMTQSPATLSVSPGERATLSCRARQNFYSNLAWYQQKPGQAPRLLIYGASTRATGIPARFSGSGSGTEFTLTISSLQSEDFAVYYCQQYNNWPLTFGGGTKVEIK
Consider B9, for which the OD450 came to 0.1 in [1], 0.22 in [2] and 1.28 in assay [3]. The Mean fluorescence intensity in assay [4] was 16.8.

B10: 7A4F10 (TIM-3 antibody purified from hybridoma, chimeric antibody of Example 2) (antibody, V domains shown)
VH: EVQLLESGGGLVQPGGSLRLSCAASGFTFRTHLISWVRQAPGKGLEWVAAITGSGGSTYYADSVKGRFIISRDNSKNTLFLQMNSLRAEDTAVYYCAKDGGSGSYDDFWGQGTLVTVSS
VL: ETVLTQSPVTLSLSPGERATLSCRASQSVGSYLAWYQQKPGQAPRLLIYDASNRATGIPARFSGSGSGTDFTLTISSLEPEDFAVYYCQQRSNWPPTFGQGTKVEIK
notes: as for B2
B10: the OD450 in [5] worked out at 0.21; in assay [6], 0.62; in [7] it was 0.54; in assay [8] it was 3.08; in [9] it was 0.11.
